Results from patent US20260250371A1 (ULTRAGENYX PHARMACEUTICAL, published 2026).
“And” between values parts separate entries of the source, which are not always exact repeats. Equal values may be shown once.

T1: recombinant human FGF23 (R179Q) (human, UniProt Q9GZV9 25-251)
T1 construct: also called rhFGF23(R179Q); hFGF23(R179Q)
T1 sequence (looked up): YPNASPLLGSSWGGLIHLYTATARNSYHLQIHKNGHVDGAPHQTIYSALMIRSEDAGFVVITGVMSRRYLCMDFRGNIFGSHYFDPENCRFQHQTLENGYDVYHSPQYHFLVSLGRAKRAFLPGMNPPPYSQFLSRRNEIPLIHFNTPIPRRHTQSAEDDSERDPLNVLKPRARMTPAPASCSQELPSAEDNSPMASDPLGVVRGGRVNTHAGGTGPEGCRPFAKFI


Biological target: T1, recombinant human FGF23 (R179Q)
Assay: SPR, antibody captured on hIgG chip, rhFGF23(R179Q) analyte

Binder | Kd | Ratio (variant antibody KD/burosumab KD) | koff | kon | SA (surface activity) [%]
UGX117 (antibody, human IgG1, kappa, V domains shown, also called LC:V34I) VH: QVQLVQSGAEVKKPGASVKVSCKASGYTFTNHYMHWVRQAPGQGLEWMGIINPISGSTSNAQKFQGRVTMTRDTSTSTVYMELSSLRSEDTAVYYCARDIVDAFDFWGQGTMVTVSS VL: AIQLTQSPSSLSASVGDRVTITCRASQGISSALIWYQQKPGKAPKLLIYDASSLESGVPSRFSGSGSGTDFTLTISSLQPEDFATYYCQQFNDYFTFGPGTKVDIKR | 0.0504 nM and 0.0703 nM | 0 | 0.000169 s⁻¹ and 0.000204 s⁻¹ | 3.35e+06 M⁻¹ s⁻¹ and 2.9e+06 M⁻¹ s⁻¹ | 
UGX133 (antibody, human IgG1, kappa, V domains shown, also called UGX022; LC:S53Y) VH: QVQLVQSGAEVKKPGASVKVSCKASGYTFTNHYMHWVRQAPGQGLEWMGIINPISGSTSNAQKFQGRVTMTRDTSTSTVYMELSSLRSEDTAVYYCARDIVDAFDFWGQGTMVTVSS VL: AIQLTQSPSSLSASVGDRVTITCRASQGISSALVWYQQKPGKAPKLLIYDASYLESGVPSRFSGSGSGTDFTLTISSLQPEDFATYYCQQFNDYFTFGPGTKVDIKR | 0.202 nM | 0 | 0.000733 s⁻¹ | 3.63e+06 M⁻¹ s⁻¹ | 84.8
UGX153 (antibody, human IgG1, kappa, V domains shown, also called HC:N31R) VH: QVQLVQSGAEVKKPGASVKVSCKASGYTFTRHYMHWVRQAPGQGLEWMGIINPISGSTSNAQKFQGRVTMTRDTSTSTVYMELSSLRSEDTAVYYCARDIVDAFDFWGQGTMVTVSS VL: AIQLTQSPSSLSASVGDRVTITCRASQGISSALVWYQQKPGKAPKLLIYDASSLESGVPSRFSGSGSGTDFTLTISSLQPEDFATYYCQQFNDYFTFGPGTKVDIKR | 0.112 nM | 0 | 0.000322 s⁻¹ | 2.87e+06 M⁻¹ s⁻¹ | 83.7
UGX162 (antibody, human IgG1, kappa, V domains shown, also called HC:S59L) VH: QVQLVQSGAEVKKPGASVKVSCKASGYTFTNHYMHWVRQAPGQGLEWMGIINPISGSTLNAQKFQGRVTMTRDTSTSTVYMELSSLRSEDTAVYYCARDIVDAFDFWGQGTMVTVSS VL: AIQLTQSPSSLSASVGDRVTITCRASQGISSALVWYQQKPGKAPKLLIYDASSLESGVPSRFSGSGSGTDFTLTISSLQPEDFATYYCQQFNDYFTFGPGTKVDIKR | 0.0986 nM | 0 | 0.000472 s⁻¹ | 4.79e+06 M⁻¹ s⁻¹ | 88.4
UGX152 (antibody, human IgG1, kappa, V domains shown, also called HC:N31Q) VH: QVQLVQSGAEVKKPGASVKVSCKASGYTFTQHYMHWVRQAPGQGLEWMGIINPISGSTSNAQKFQGRVTMTRDTSTSTVYMELSSLRSEDTAVYYCARDIVDAFDFWGQGTMVTVSS VL: AIQLTQSPSSLSASVGDRVTITCRASQGISSALVWYQQKPGKAPKLLIYDASSLESGVPSRFSGSGSGTDFTLTISSLQPEDFATYYCQQFNDYFTFGPGTKVDIKR | 0.0416 nM | 0 | 0.000262 s⁻¹ | 6.29e+06 M⁻¹ s⁻¹ | 91.2
UGX160 (antibody, human IgG1, kappa, V domains shown, also called UGX066; HC:S59F) VH: QVQLVQSGAEVKKPGASVKVSCKASGYTFTNHYMHWVRQAPGQGLEWMGIINPISGSTFNAQKFQGRVTMTRDTSTSTVYMELSSLRSEDTAVYYCARDIVDAFDFWGQGTMVTVSS VL: AIQLTQSPSSLSASVGDRVTITCRASQGISSALVWYQQKPGKAPKLLIYDASSLESGVPSRFSGSGSGTDFTLTISSLQPEDFATYYCQQFNDYFTFGPGTKVDIKR | 0.0142 nM and 0.0147 nM and 0.0146 nM | 1 | 8.7e-05 s⁻¹ and 9.61e-05 s⁻¹ and 9.01e-05 s⁻¹ | 6.2e+06 M⁻¹ s⁻¹ (2×) and 6.5e+06 M⁻¹ s⁻¹ | 
UGX159 (antibody, human IgG1, kappa, V domains shown, also called HC:S59E) VH: QVQLVQSGAEVKKPGASVKVSCKASGYTFTNHYMHWVRQAPGQGLEWMGIINPISGSTENAQKFQGRVTMTRDTSTSTVYMELSSLRSEDTAVYYCARDIVDAFDFWGQGTMVTVSS VL: AIQLTQSPSSLSASVGDRVTITCRASQGISSALVWYQQKPGKAPKLLIYDASSLESGVPSRFSGSGSGTDFTLTISSLQPEDFATYYCQQFNDYFTFGPGTKVDIKR | 0.0226 nM and 0.0251 nM | 1 | 0.000224 s⁻¹ and 0.000222 s⁻¹ | 9.91e+06 M⁻¹ s⁻¹ and 8.83e+06 M⁻¹ s⁻¹ | 
UGX130 (antibody, human IgG1, kappa, V domains shown, also called LC:S53E) VH: QVQLVQSGAEVKKPGASVKVSCKASGYTFTNHYMHWVRQAPGQGLEWMGIINPISGSTSNAQKFQGRVTMTRDTSTSTVYMELSSLRSEDTAVYYCARDIVDAFDFWGQGTMVTVSS VL: AIQLTQSPSSLSASVGDRVTITCRASQGISSALVWYQQKPGKAPKLLIYDASELESGVPSRFSGSGSGTDFTLTISSLQPEDFATYYCQQFNDYFTFGPGTKVDIKR | 0.0348 nM | 1 | 0.000358 s⁻¹ | 1.03e+07 M⁻¹ s⁻¹ | 88.4
UGX131 (antibody, human IgG1, kappa, V domains shown, also called LC:S53F) VH: QVQLVQSGAEVKKPGASVKVSCKASGYTFTNHYMHWVRQAPGQGLEWMGIINPISGSTSNAQKFQGRVTMTRDTSTSTVYMELSSLRSEDTAVYYCARDIVDAFDFWGQGTMVTVSS VL: AIQLTQSPSSLSASVGDRVTITCRASQGISSALVWYQQKPGKAPKLLIYDASFLESGVPSRFSGSGSGTDFTLTISSLQPEDFATYYCQQFNDYFTFGPGTKVDIKR | 0.0393 nM | 1 | 0.000266 s⁻¹ | 6.78e+06 M⁻¹ s⁻¹ | 95.7
UGX140 (antibody, human IgG1, kappa, V domains shown, also called UGX039; LC:D93F) VH: QVQLVQSGAEVKKPGASVKVSCKASGYTFTNHYMHWVRQAPGQGLEWMGIINPISGSTSNAQKFQGRVTMTRDTSTSTVYMELSSLRSEDTAVYYCARDIVDAFDFWGQGTMVTVSS VL: AIQLTQSPSSLSASVGDRVTITCRASQGISSALVWYQQKPGKAPKLLIYDASSLESGVPSRFSGSGSGTDFTLTISSLQPEDFATYYCQQFNFYFTFGPGTKVDIKR |  |  |  | 2.63e+06 M⁻¹ s⁻¹ and 2.27e+06 M⁻¹ s⁻¹ | 
UGX161 (antibody, human IgG1, kappa, V domains shown, also called HC:S59I) VH: QVQLVQSGAEVKKPGASVKVSCKASGYTFTNHYMHWVRQAPGQGLEWMGIINPISGSTINAQKFQGRVTMTRDTSTSTVYMELSSLRSEDTAVYYCARDIVDAFDFWGQGTMVTVSS VL: AIQLTQSPSSLSASVGDRVTITCRASQGISSALVWYQQKPGKAPKLLIYDASSLESGVPSRFSGSGSGTDFTLTISSLQPEDFATYYCQQFNDYFTFGPGTKVDIKR | 0.061 nM | 0 | 0.000267 s⁻¹ | 4.38e+06 M⁻¹ s⁻¹ | 84.2

Further binders by falling Kd, results first:

Kd | Ratio (variant antibody KD/burosumab KD) | koff | kon | SA (surface activity) [%] | Binder
0.0332 nM | 1 | 0.00017 s⁻¹ | 5.14e+06 M⁻¹ s⁻¹ | 89.9 | UGX146 (antibody, human IgG1, kappa, V domains shown, also called LC:Y94F) VH: QVQLVQSGAEVKKPGASVKVSCKASGYTFTNHYMHWVRQAPGQGLEWMGIINPISGSTSNAQKFQGRVTMTRDTSTSTVYMELSSLRSEDTAVYYCARDIVDAFDFWGQGTMVTVSS VL: AIQLTQSPSSLSASVGDRVTITCRASQGISSALVWYQQKPGKAPKLLIYDASSLESGVPSRFSGSGSGTDFTLTISSLQPEDFATYYCQQFNDFFTFGPGTKVDIKR
0.0319 nM | 1 | 0.000161 s⁻¹ | 5.04e+06 M⁻¹ s⁻¹ | 86.5 | UGX137 (antibody, human IgG1, kappa, V domains shown, also called UGX035; LC:N92F) VH: QVQLVQSGAEVKKPGASVKVSCKASGYTFTNHYMHWVRQAPGQGLEWMGIINPISGSTSNAQKFQGRVTMTRDTSTSTVYMELSSLRSEDTAVYYCARDIVDAFDFWGQGTMVTVSS VL: AIQLTQSPSSLSASVGDRVTITCRASQGISSALVWYQQKPGKAPKLLIYDASSLESGVPSRFSGSGSGTDFTLTISSLQPEDFATYYCQQFFDYFTFGPGTKVDIKR
0.0272 nM | 1 | 0.000181 s⁻¹ | 6.65e+06 M⁻¹ s⁻¹ | 91.2 | UGX148 (antibody, human IgG1, kappa, V domains shown, also called HC:T30F) VH: QVQLVQSGAEVKKPGASVKVSCKASGYTFFNHYMHWVRQAPGQGLEWMGIINPISGSTSNAQKFQGRVTMTRDTSTSTVYMELSSLRSEDTAVYYCARDIVDAFDFWGQGTMVTVSS VL: AIQLTQSPSSLSASVGDRVTITCRASQGISSALVWYQQKPGKAPKLLIYDASSLESGVPSRFSGSGSGTDFTLTISSLQPEDFATYYCQQFNDYFTFGPGTKVDIKR
0.0255 nM | 1 | 0.000212 s⁻¹ | 8.32e+06 M⁻¹ s⁻¹ | 90.3 | UGX151 (antibody, human IgG1, kappa, V domains shown, also called HC:N31F) VH: QVQLVQSGAEVKKPGASVKVSCKASGYTFTFHYMHWVRQAPGQGLEWMGIINPISGSTSNAQKFQGRVTMTRDTSTSTVYMELSSLRSEDTAVYYCARDIVDAFDFWGQGTMVTVSS VL: AIQLTQSPSSLSASVGDRVTITCRASQGISSALVWYQQKPGKAPKLLIYDASSLESGVPSRFSGSGSGTDFTLTISSLQPEDFATYYCQQFNDYFTFGPGTKVDIKR
0.0235 nM | 1 | 0.000181 s⁻¹ | 7.71e+06 M⁻¹ s⁻¹ | 100 | UGX135 (antibody, human IgG1, kappa, V domains shown, also called LC:N92D) VH: QVQLVQSGAEVKKPGASVKVSCKASGYTFTNHYMHWVRQAPGQGLEWMGIINPISGSTSNAQKFQGRVTMTRDTSTSTVYMELSSLRSEDTAVYYCARDIVDAFDFWGQGTMVTVSS VL: AIQLTQSPSSLSASVGDRVTITCRASQGISSALVWYQQKPGKAPKLLIYDASSLESGVPSRFSGSGSGTDFTLTISSLQPEDFATYYCQQFDDYFTFGPGTKVDIKR
0.0176 nM | 1 | 0.000122 s⁻¹ | 6.93e+06 M⁻¹ s⁻¹ | 85 | UGX127 (antibody, human IgG1, kappa, V domains shown, also called UGX017; LC:S52E) VH: QVQLVQSGAEVKKPGASVKVSCKASGYTFTNHYMHWVRQAPGQGLEWMGIINPISGSTSNAQKFQGRVTMTRDTSTSTVYMELSSLRSEDTAVYYCARDIVDAFDFWGQGTMVTVSS VL: AIQLTQSPSSLSASVGDRVTITCRASQGISSALVWYQQKPGKAPKLLIYDAESLESGVPSRFSGSGSGTDFTLTISSLQPEDFATYYCQQFNDYFTFGPGTKVDIKR
